Reference: IntAct's records for PubMed 21633354

Molecular target: T1, cnd2_schpo cnd2 (UniProt Q9Y7R3)
T1 sequence: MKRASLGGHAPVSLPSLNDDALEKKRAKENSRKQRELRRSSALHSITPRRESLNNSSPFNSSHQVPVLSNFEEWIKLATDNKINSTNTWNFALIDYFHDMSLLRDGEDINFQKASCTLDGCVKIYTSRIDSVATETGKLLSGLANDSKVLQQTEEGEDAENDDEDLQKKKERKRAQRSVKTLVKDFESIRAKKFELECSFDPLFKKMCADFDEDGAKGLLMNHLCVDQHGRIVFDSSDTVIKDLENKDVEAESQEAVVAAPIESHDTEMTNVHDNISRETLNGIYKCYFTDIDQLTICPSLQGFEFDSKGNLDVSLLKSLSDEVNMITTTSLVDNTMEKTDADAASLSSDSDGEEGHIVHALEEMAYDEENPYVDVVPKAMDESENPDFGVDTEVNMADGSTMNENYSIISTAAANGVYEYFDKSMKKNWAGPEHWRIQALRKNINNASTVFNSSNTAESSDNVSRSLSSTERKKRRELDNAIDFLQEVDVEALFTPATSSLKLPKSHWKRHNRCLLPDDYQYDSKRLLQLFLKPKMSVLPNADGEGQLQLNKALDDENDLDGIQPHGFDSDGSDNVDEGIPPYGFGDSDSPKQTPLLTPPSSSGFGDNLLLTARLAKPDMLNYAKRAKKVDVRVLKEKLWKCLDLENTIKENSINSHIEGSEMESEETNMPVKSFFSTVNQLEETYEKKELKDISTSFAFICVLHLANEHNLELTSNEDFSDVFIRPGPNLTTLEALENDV

effect of a mutation on the interaction | Substance
decreasing interaction | Histone H2A-beta (Schizosaccharomyces pombe (strain ATCC 38366 / 972)) (from UniProt P04910) R19A
disrupting interaction strength | Histone H2A-beta (Schizosaccharomyces pombe (strain ATCC 38366 / 972)) (from UniProt P04910) K5A;K9A;K14A;R19A;K22A
disrupting interaction strength | Histone H2A-beta (Schizosaccharomyces pombe (strain ATCC 38366 / 972)) (from UniProt P04910) K14A;R19A;K22A
